Test [1] has as its target T1, cynomolgus monkey E-selectin extracellular domain with 10 His purification tail (cynomolgus monkey, UniProt P16581 22-554 (human entry)).
T1 construct: also called cynomolgus E-selectin; truncated cynomolgus monkey E-selectin
T1 chain: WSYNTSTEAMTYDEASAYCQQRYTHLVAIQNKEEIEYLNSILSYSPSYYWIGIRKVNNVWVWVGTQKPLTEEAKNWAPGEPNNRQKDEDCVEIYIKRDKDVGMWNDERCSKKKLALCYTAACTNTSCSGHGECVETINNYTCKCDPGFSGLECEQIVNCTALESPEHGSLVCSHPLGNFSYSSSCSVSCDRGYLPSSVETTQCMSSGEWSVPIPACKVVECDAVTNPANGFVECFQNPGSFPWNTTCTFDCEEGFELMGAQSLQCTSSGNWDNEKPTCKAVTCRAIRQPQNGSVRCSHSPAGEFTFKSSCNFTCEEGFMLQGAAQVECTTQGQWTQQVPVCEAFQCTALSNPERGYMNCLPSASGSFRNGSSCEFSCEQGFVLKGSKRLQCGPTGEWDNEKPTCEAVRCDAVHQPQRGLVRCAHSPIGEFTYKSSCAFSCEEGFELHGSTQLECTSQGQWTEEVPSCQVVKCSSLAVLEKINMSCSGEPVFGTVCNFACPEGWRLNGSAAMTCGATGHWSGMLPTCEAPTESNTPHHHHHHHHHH
The test can be described thus: SPR, antibody captured, E-selectin analyte. As to the method:
Final immobilization level of the capture antibody was approximately 10,000 resonance units (RU). The running buffer for immobilization and kinetics was HBS-EP+(10 mM 4-(2-hydroxyethyl)-1-piperazineethanesulfonic acid (HEPES) pH 7.4, 150 mM sodium chloride, 3 mM ethylenediaminetetraacetic acid (EDTA), 0.05% (v/v) Tween-20).
To characterize binding of antibodies to human, cynomolgus monkey, and mouse E-selectin, an antibody was diluted to 0.5 μg/mL in HBS-EP+ and captured by the anti-human IgG immobilized on flow cells 2, 3 and 4 for 30 seconds to 1 minute at a flow rate of 10 μL/minute to achieve a capture level of 70 to 300 RU. Flow cell 1 was used as a reference surface. […] HBS-EP+ buffer cycles collected for each captured antibody were used for double-referencing (Myszka D G. J. Mol. Recognition 1999; 12(5):279-84). At the end of each cycle, the entire anti-IgG surface was regenerated by a 30 second pulse of 3 M MgCl₂ and a 30 second pulse of ionic buffer (1.83 M MgCl₂, 0.92 M Urea, 1.83 M Guanidine HCl, pH 7.4) (Andersson K. Analy. Chem. 1999; 71(13): 2475-81). Kinetic assays were conducted at 25° C. at a collection rate of 10 Hertz (Hz) on a BIAcore™ T200 instrument (GE Healthcare). Rate constants and affinities were determined by fitting the data to a 1:1 binding model in BIAcore™ T200 Evaluation software version 3.0 (GE Healthcare).
This was done by first binding the antibody to immobilized anti-human IgG. After antibody capture, dilutions of the E-selectin proteins were flowed over and the association rate constant (ka), disassociation rate constant (kd), t½, and KD values were determined for binding to human and cynomolgus E-selectin (Table 13).
A general note: In SPR one partner is held on a chip, and binding of the other changes the refractive index at the surface.

The target in test [2] is T2, human E-selectin, cell-surface expressed (human, UniProt P16581 22-610).
T2 construct: also called CHO-human E-selectin cells; human CHO-E
T2 sequence: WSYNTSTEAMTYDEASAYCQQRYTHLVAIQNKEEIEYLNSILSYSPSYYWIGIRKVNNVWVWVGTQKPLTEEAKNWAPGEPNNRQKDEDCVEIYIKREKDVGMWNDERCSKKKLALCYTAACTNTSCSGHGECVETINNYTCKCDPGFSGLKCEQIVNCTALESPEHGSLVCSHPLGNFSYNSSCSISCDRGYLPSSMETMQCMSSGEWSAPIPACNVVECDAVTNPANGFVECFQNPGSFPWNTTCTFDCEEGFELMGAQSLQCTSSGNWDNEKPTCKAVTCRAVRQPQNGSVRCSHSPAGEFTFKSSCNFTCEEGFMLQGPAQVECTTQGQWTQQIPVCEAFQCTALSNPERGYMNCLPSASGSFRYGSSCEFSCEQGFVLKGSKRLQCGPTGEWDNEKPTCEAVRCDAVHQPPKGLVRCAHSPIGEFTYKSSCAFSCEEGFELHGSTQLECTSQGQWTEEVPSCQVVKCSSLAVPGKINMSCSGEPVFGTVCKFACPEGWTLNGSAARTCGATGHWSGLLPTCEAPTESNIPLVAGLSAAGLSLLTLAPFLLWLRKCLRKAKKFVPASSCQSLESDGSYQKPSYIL
The test can be described thus: competition ELISA on CHO cells vs sialyl Lewis ligand, further assays. How it is done:
CHO cells expressing E-selectin were seeded at 12,500 cells per well into a 96 well tissue culture plate and incubated at 37° C., 5% CO₂ for 48 hours to form a confluent monolayer. Plates were subsequently washed twice with 200 μL of calcium magnesium free PBS. Anti-E-selectin antibodies or an IgG1 isotype control (IgG control) were added to the assay in the presence of a small synthetic conjugate of biotinylated, sialyl Lewis A polyacrylamide (Carbosynth LLC, OS45446) or sialyl Lewis X polyacrylamide (Glycotech, 01-045) with streptavidin/horseradish peroxidase (100 μL total) and incubated at 37° C., 5% CO₂ for 2 hours. Plates were then washed twice with 200 μL of calcium and magnesium free PBS. Following the incubation, the cells were washed twice with 200 μL of wash buffer containing 2 mM of calcium chloride (50 mM TRIS [trisaminomethane], 150 mM sodium chloride; 0.05% polysorbate 20, pH 7.4; 2 mM calcium chloride). Signal was developed by adding 100 μL of 1-Step Ultra TMB substrate (Thermo Scientific, 34028) and incubating for 30 minutes at room temperature. Reactions were stopped using 2 M of sulfuric acid and absorbance was read at 450 nm (Spectramax M5e). Data were analyzed and graphed using GraphPad Prism software (Version 8.0.2).

Consider two molecules from patent US20240076386A1 (Pfizer, published 2024).

B1: humanized anti-E-selectin antibody 0841 (antibody, human IgG1, kappa, V domains shown)
VH: EVQLVESGGGLVQPGGSLRLSCAASGYNIRSSYMHWVRQAPGKGLEWVARIDPANGNTIYAEKFKIRFTISADNAKNSAYLQMNSLRAEDTAVYYCAMDLYSTSEYWGQGTLVTVSS
VL: DIQMTQSPSSLSASVGDRVTITCKTSQNINRYLNWYQQKPGKAPKLLIYNANSLQTGVPSRFSGSGSGTDFTLTISSLQPEDFATYFCLQDNSWPLTFGQGTKVEIKR
notes: effector-null human IgG1, kappa
B1: in test [1], the equilibrium dissociation constant (Kd) – broadly, the free concentration of one partner at which half of the binding sites on the other are occupied at equilibrium, for simple one-to-one binding – was determined as 138 nM; the koff (usually the first-order rate constant of dissociation) was 0.0252 s⁻¹; the kon – broadly, the second-order rate constant of association – worked out at 182000 M⁻¹ s⁻¹; the t½ (in general, the time needed for the level to fall by half in the phase considered) is 27.6 s.

B2: optimized anti-E-selectin antibody 1444 (antibody, human IgG1, kappa, V domains shown)
VH: EVQLVESGGGLVQPGGSLRLSCAASGYAIRSAYMHWVRQAPGKGLEWVARIDPANGNTIYVDSVTGRFTISADNAKNSAYLQMNSLRAEDTAVYYCAMDLYSTSEYWGQGTLVTVSS
VL: DIQMTQSPSSLSASVGDRVTITCKTSQNIERYLNWYQQKPGKAPKLLIYAASSLQSGVPSRFSGSGSGTDFTLTISSLQPEDFATYFCLQDNAWPLTFGQGTKVEIKR
notes: as for B1
On to B2, for which, in test [2], the half-maximal inhibitory concentration (IC50) (commonly the midpoint of a concentration-inhibition curve) turned out to be 2.33 nM.
